Experimental findings from article doi:10.1101/2025.08.05.668721 (bioRxiv, 2025) are described below.

Data set [1] deals with T1, FGL-1 Fibrinogen-like domain (FD), dimer, C-terminal Avi-tag, biotinylated (human), Q08830.
T1 chain: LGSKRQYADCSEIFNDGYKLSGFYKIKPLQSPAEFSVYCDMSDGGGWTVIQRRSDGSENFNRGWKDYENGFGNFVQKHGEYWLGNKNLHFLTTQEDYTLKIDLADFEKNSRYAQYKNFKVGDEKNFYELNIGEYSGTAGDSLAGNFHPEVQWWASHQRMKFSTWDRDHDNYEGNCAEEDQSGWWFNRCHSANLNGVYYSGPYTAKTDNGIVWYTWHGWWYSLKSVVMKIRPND
Description: BLI. For orientation: Biolayer interferometry detects binding as a change in optical thickness at a sensor tip.

The target in data set [2] is T2, FGL-1 Fibrinogen-like domain (FD), monomer, C-terminal Avi-tag, biotinylated (human), Q08830.
T2 chain: T1 chain
Description: BLI.

The data set “SEC” deals with the molecule itself. Description: SEC.
The data set “crystal structure” concerns the molecule itself. Description: crystal structure.

B1: LAG-3 (soluble analyte in BLI), P18627 23-450 (receptor)
chain: LQPGAEVPVVWAQEGAPAQLPCSPTIPLQDLSLLRRAGVTWQHQPDSGPPAAAPGHPLAPGPHPAAPSSWGPRPRRYTVLSVGPGGLRSGRLPLQPRVQLDERGRQRGDFSLWLRPARRADAGEYRAAVHLRDRALSCRLRLRLGQASMTASPPGSLRASDWVILNCSFSRPDRPASVHWFRNRGQGRVPVRESPHHHLAESFLFLPQVSPMDSGPWGCILTYRDGFNVSIMYNLTVLGLEPPTPLTVYAGAGSRVGLPCRLPAGVGTRSFLTAKWTPPGGGPDLLVTGDNGDFTLRLEDVSQAQAGTYTCHIHLQEQQLNATVTLAIITVTPKSFGSPGSLGKLLCEVTPVSGQERFVWSSLDTPSQRSFSGPWLEAQEAQLLSQPWQCQLYQGERLLGAAVYFTELSSPGAQRSGRAPGALPAGHL
modifications: not checked
With B1, the dissociation constant Kd in data set [1] came to 16.8 nM; in data set [2], 740 nM.

B2: FGL-1 Fibrinogen-like domain (FD), dimer, C-terminal Avi-tag, biotinylated (domain or fragment, human, UniProt Q08830 74-306, looked up)
chain: T1 chain
modifications: biotin on the Avi-tag (BirA)
Regarding B2, the “stoichiometry N” value in “SEC” was 2.

B3: FGL-1 FD dimer (without Avi-tag) (domain or fragment, human, UniProt Q08830 74-306, looked up)
chain: T1 chain
Consider B3, for which the binding result in the data set “crystal structure” was “binds”.

A word on the Kd: it is the concentration at which binding is half-saturated. A low value points to higher affinity. As usually defined, the stoichiometry N is a count of units in the complex or per binding partner.
